Reference: patent publication US10975360B2, “Process for the modification of alkanes, fatty acids and fatty alcohols” (priority 2016, dated 2021)

Tests used:
[1] = assay type: cell-based, P. pastoris
Experimental: Precultures of P. pastoris transformants were prepared in buffered complex glycerol media (BMGY). BMGY contained: 10 g/l yeast extract, 20 g/l peptone, 3.4 g/l yeast nitrogen base, 10 g/l ammonium sulfate, 100 mM potassium phosphate (pH 6), 0.4 mg/l biotin and 1% (v/v) glycerol. Erlenmeyer flasks (500 ml) containing 50 ml BMGY media were inoculated with single colonies of 24 h old YPD-agar cultures of P. pastoris KM71 mut^s3/CYP505E3 and incubated at 30° C. and 225 rpm for 24 h. The cultures were harvested using pre-weighed centrifuge tubes at 3000 g for 5 min and stored on ice until further use.
The main cultures for expression were prepared in buffered complex methanol media (BMMY) containing 10 g/l yeast extract, 20 g/l peptone, 3.4 g/l yeast nitrogen base, 10 g/l ammonium sulfate, 100 mM potassium phosphate (pH 6), 0.4 mg/l biotin and 0.5 or 1% (v/v) methanol. Harvested cells from precultures were resuspended in BMMY media to final concentration of 1 g WC per 40 ml (appx. 25 g/l). The resuspended cultures (100 ml) were transferred to 500 ml Erlenmeyer flasks and incubated at 25° C. and 225 rpm for 24 h. The cultures were then harvested at 3000 g for 5 min using pre-weighed centrifuge tubes.
Different transformants of Pichia pastoris KM71 harbouring the CYP505 genes for SEQ ID Nos 1 to 7 and 9 to 12 were grown and harvested as described above. The harvested cells were resuspended to give 1 g wet cell weight in 40 ml MOPS buffer (200 mM, 100 mM glucose, 100 mM glycerol, pH 8) and 1 ml aliquots of these cell suspensions were transferred to 40 ml amber vials. Dodecane, 1-dodecanol and 1-tetradecanol were added neat to these cell suspensions to give final concentrations of 200 mM in the case of the alcohols and 1 M in the case of dodecane while in the case of dodecanoic acid 20 μl of a 500 mM stock solution (in DMSO) was added to give a final concentration of 10 mM. Transformants harbouring the CYP505 genes for SEQ ID Nos 1 to 4 were tested for the biotransformation of 1-dodecanol, 1-tetradecanol, dodecanoic acid, tetradecanoic acid and dodecane, while those harbouring the CYP505 genes for SEQ ID Nos 5 to 7 and 9 to 12 were only tested for the biotransformation of 1-dodecanol and dodecanoic acid. The biotransformations were incubated at 25° C. and 225 rpm for 24 h. Extractions were performed using ethyl acetate (500 μl×2). The extracts were analyzed using GC/MS.

[2] = Biotransformation of 1-hexadecanol using CFE of E. coli, Tris-HCl buffer; assay type: biochemical; details: 5 mmol/L substrate, 24 h
Experimental: (§1) Expression of genes in E. coli was performed by using ZYP-5052 auto-induction medium (Table 1) with in the case of the CYP 1 mM 5-aminolevulinic acid and 0.05 mM FeCl3 added. The CYP505E3 culture was cultivated using baffled flasks and incubated at 20° C. and 180 rpm for 24 h, while the GDH, and HLADH expressing cultures were all cultivated at 25° C. and 200 rpm for 24 h. Cultures were harvested through centrifugation (6 000×g, 10 min) and 1 g (wet weight) resuspended in 2 ml, 5 ml or 10 ml Tris-HCl, Phosphate or MOPS buffer, as indicated, (pH 8, 200 mM) containing 100 mM of glucose and glycerol. CFEs were obtained by a single passage of the suspended cells through a One Shot Cell Disrupter (Constant Systems) at 207 MPa. The soluble fraction was separated from unbroken cells by centrifugation (20 000×g, 20 min).
The biotransformation reaction mixture (BRM) consisted of CYP and GDH CFE suspensions prepared from cells in Tris-HCl buffers (1 g wet weight in 2 ml buffer) mixed in a 1:1 ratio with 0.1 mM NADPH added. Dodecanoic acid, tetradecanoic acid, hexadecanoic acid, 1-tetradecanol and 1-hexadecanol (20 μl of a 255 mM stock solution in DMSO) were added to 40 ml amber glass vials containing 1 ml BRM to give final substrate concentrations of 5 mmol·LBRM^−1. These vials were placed on an orbital shaker at 20° C., 200 rpm, oscillation amplitude 26 mm. […]

[3] = Time course of biotransformation of 50 mM C12 fatty acid using CFE of E. coli in MOPS buffer; assay type: biochemical; details: 50 mM dodecanoic acid, 0.2 μM CYP
Experimental: as §1, with “min). […]” for “min).”
After extraction aliquots (50 μl) of ethyl acetate extracts containing both decanoic acid and tetradecanol as internal standards were methylated for GC-MS analysis while the rest of the extracts were washed with a Na2CO3 (5% w/v) solution to remove the fatty acids. The washed ethyl acetate extracts were also analysed by GC-MS and the δ-dodecalactone and γ-dodecalactone concentrations determined from a standard curve.

[4] = assay type: biochemical
Experimental: To convert 1,5-dodecanediol to δ-dodecalactone 170 μL of an ethyl acetate extract containing 150 mM dodecanol and 5.5 mM 1,5-dodecanediol was placed in a 40 mL vial and the ethyl acetate evaporated by incubating the vial at 100° C. for 5 min. After evaporation of the ethyl acetate the dodecanol/dodecanediol mixture was resuspended in 1 mL of an HLADH expressing culture of E. coli permeabilized with Triton X100 (1% v/v was added and the cell suspension incubated at 37° C. for 10 min). This reaction mixture containing 1 mM of 1,5-dodecanediol and 25 mM of dodecanol was incubated at 30° C. and 180 rpm for 24 h. It was then extracted with ethyl acetate (2×0.5 mL) containing 2 mM undecanol as internal standard and analysed on a VF5 column using a GC with FID detector for quantification and a GC-MS with a Chiraldex G-TA column (30 m×0.25 mm ID) to determine enantioselectivity. The ethyl acetate extract contained 0.2 mM 1,5-dodecanediol and 0.65 mM δ-dodecalactone (R:S ratio 84:16, ee 67%) while the δ-dodecalactone produced from dodecanoic acid in previous experiments using CYP505E3 was an almost racemic mixture (R:S ratio 55:45, ee 10%) (FIG. 12).

B1: CYP505E3: self-sufficient cytochrome P450 monooxygenase from Aspergillus terreus, SEQ ID No 1 (protein, listed as Aspergillus terreus)
chain: MIKETEQIPGPRPLPVVGNLFDMDLEHGLECLIRLADDFGPLFQITINGEKQIFATSQALVDELCDESRFHKAVMGGLEKLRMLASDGLFTAYHGERGWGIAHRILVPAFGPLRIRNMFEEMNDVAQQLCLKWARQGSSTSINITDDFTRLTLDTIALCTMNFRLNSFYNNETMHPFVKSMLYVLRESDIQSMLPGIANCIRVKARSRMSKHIQLMRNMARGIIQERRDQAEPVDDLLNTLLNGRDPVTGEGMSDDLIINNVITFLIAGHETTSGLLSFTFYYLLQNPHILERAQNEVDEVTGGERITVQHLGRLTYIDAILKESLRLMPTAPAFTVTPKKPEVLGGAWAIDAGQAVNVLLPVCLRDRSVFGPDADEFRPERMLEENFSKLPPNSWKPFGNGERSCIGRAFAWQEAQLVVAMVLQTFDLVPDDPSYKLRIKETLTIKPDGFRVRATLRRGQSATGLSQGSMSASGATSSVASPGPPAATGAQSNPAGGQRISFFYGSNSGTCKALAHRLASSLMGRGFTEQKLAALDTVVGNLPTDQPVIIVTTSYDGRPTDDAEEFVRWLESKRPVLQGVSYAVFGCGHHDWAKTFYRIPILIDDLMHKAGATRLTALGTANAAVSDLFSDLELWEETNLLPALREAFPPSNSSDVESSEPHQLQICVSKPRRVDMHRGLVEAKVTAVRTLTSPDSPEKRHVEFHVQGDTTWRPGDHVNILPVNPLSTVSRVLAYFQLAPDHSITVNSFNTQGLPSATPVSATELFSSFVELSQPATRKNLKALAMAAESKTDEQELIRLHDSYDALVRDKRVSVLDILERFPSISLPIGIFISMLPPLRLRTYSLSMAPSFKPSHGSLTFSVINEPAWSGNGQYLGVGSNYLASLTPGSLLYLSPRPAKDAFHLPADQFNTPIIMICAGSGLAPFMGFIQERMTWLKQGRPLAKGLLFFGCRGPHLDDLYYEELSEFEDAGVVEVHRAYSRAPDDVRAKGCRHVQHRLVTEAEAVRDHWGRNAIVYVCGSSNMARGVQTVLEEILGTLPPERYVAEIF
[1]
  products produced from tetradecanoic acid (GC-MS): only 7-hydroxy tetradecanoic acid
[2]
  products detected from hexadecanol (GC-MS): did not allow detection of any products
[3]; Na2CO3 washed, not methylated
  lactone concentrations in the washed ethyl acetate samples: 0.6 mmol·LBRM^−1
[3]; unwashed, methylated
  lactone concentrations in the unwashed samples: 1.6 mmol·LBRM^−1
[4]
  δ-dodecalactone R:S ratio: 55:45
  δ-dodecalactone ee: 10%
